The text below walks through data of patent US20260258115A1 (MAPP BIOPHARMACEUTICAL, published 2026).

Holding throughout (test): BLI, IgG
Experiment [1] addresses T1, RSV postfusion F (postF), subtype B (respiratory syncytial virus, subtype B).
T1 construct: also called F ΔFP; Postfusion subtype B

Experiment [2] concerns the target RSV prefusion F (preF), subtype A (respiratory syncytial virus, subtype A, UniProt P03420 26-513).
The target in experiment [3] is RSV prefusion F (preF), subtype B (respiratory syncytial virus, subtype B).
Experiment [4] deals with T2, RSV postfusion F (postF), subtype A (respiratory syncytial virus, subtype A, UniProt P03420 26-513).
T2 construct: also called F ΔFP; Postfusion subtype A

B1: ADI-21002 (antibody, V domains shown)
VH: QVQLVESGPGLVKPSGTLSLTCAVSGDSINSGNWWNWVRQAPGKGLEWIGEIYHRGTSNYNPSLKSRVTISVDQSKNQFSLKVTSLTAADTAIYYCARARGYSSGPSYYYYLDVWGKGTLVTVSS
VL: EIVMTQSPSSLSASVGDRVTISCRASQSISTYLNWYQQKPGKAPKVIIYGASNLQSGVPSRFSGSGSGTDFTLTISSLQPEDFATYYCQKSFNPCVFGQGTKVDIK
B1: the equilibrium dissociation constant (Kd) was 6.39 nM in experiment [1], 2.36 nM in experiment [2], 8.6 nM in experiment [3] and 0.214 nM in experiment [4].

B2: ADI-21000 (antibody, V domains shown)
VH: EVQLVESGPVLVKPRGTLTLTCTVSGFSLSDARMGVSWIRQPPGKALEWLAHIFWDDEKSYSTSLKNRLTISKDTSRGQVVLRMTNMDPVDTGTYFCARVNTYHSGGYYLYYFDVWGQGTLVTVSS
VL: EIVLTQSPSSLSASVGDRVTITCRASQIIASYLNWYQQKPGQAPKLLIYAASSLQSGVPSRFSGSGSGTDFTLTISSLQPEDFATYYCQQSYSTRMYTFGQGTKVEIK
For B2, the equilibrium dissociation constant (Kd) in experiment [1] is 0.602 nM; in experiment [2] it was 1.49 nM; in experiment [3], 1.3 nM; in experiment [4], 0.295 nM.

B3: ADI-20990 (antibody, V domains shown)
VH: EVQLVESGGGVVQPGRSLRLSCSASGFPFHSYAMHWVRQAPGKGLEWVAGIWYEGSSESYADSVKGRLTISRDNSRNTLYLQMNSLRVEDTAVYYCARRGSFSGFDSWGQGSLVTVSS
VL: DIVMTQSPLSLPVTPGEPASISCRSSQSLLHSNGYNYLDWYLQKPGQSPQLLISLGSNRASGVPDRFSGSVAGTDFTLKISRVEAEDVGVYYCMQSSQTPYTFGQGTKVDIK
With B3, the Kd is 0.312 nM in experiment [1], 1.58 nM in experiment [2], 0.904 nM in experiment [3] and 0.178 nM in experiment [4].

B4: ADI-14607 (antibody, V domains shown)
VH: EVQLLESGGGVVQSGRSLRLSCAASGFTFNNYAMHWVRQAPGKGLEWVAVISFDGGNKFYGDSVQGRFTISRDNSKNTLYLQTNSLRPEDTAVYYCARDRWEIQIGLDIWGQGTTVTVSS
VL: SYVLTQPPSVSVSPGQTARITCSGDALARQNAYWYQQKPGQAPVLVMYRDTGRPSGIPERFSGSSSGTTVTLTISEVQAEDEADYYCQSADSSGAYVFGTGTKVTVL
On to B4, for which the Kd was 0.227 nM in experiment [1], 1.7 nM in experiment [2], 0.64 nM in experiment [3] and 0.381 nM in experiment [4].

B5: ADI-20972 (antibody, V domains shown)
VH: QVQLQQWGAGLLRPSETLSLTCAVSGGSFSGHYWSWIRQPPGKGLEWIGGINHSGNTNYSPSLRSRVTMSVDTSRNQFSLMLRSVTAADTAVYFCARNVPNLYGDYPRWFDPWGQGTLVTVSS
VL: QSVLTQPASVSGSPGQSITISCTGTSSDVGGFNYVSWYQHHPGKAPKLMIYDVNNRPSGASNRFSGSKSGNTASLTISGLQAEDEADYYCSSYRSSDTLYVFGTGTKVTVL
Take B5: the Kd was 3.48 nM in experiment [1], 0.888 nM in experiment [2], 6.06 nM in experiment [3] and 0.401 nM in experiment [4].

B6: ADI-20981 (antibody, V domains shown)
VH: QVQLQESGPRLVKPSETLSLTCTVSGDSISSRNYFWAWIRQPPGKGLEWIGTIYYSGNTYSNPSLKSRVTISVDTSKKQFSLNLSSVTAADTAVYYCARGAYGGDAFDIWGQGTVVTVSS
VL: DIRVTQSPSSVSASVGDRVTITCRASQGIGTWLAWYQQKPGKAPHLLIYAASRLQSGVPSRFSGSGSGTDFTLSISSLHPEDFATYYCQQAYAFPRTFGQGTKVEIK
As for B6, the Kd was 0.295 nM in experiment [1], 2.34 nM in experiment [2], 2.14 nM in experiment [3] and 0.233 nM in experiment [4].

B7: ADI-20993 (antibody, V domains shown)
VH: EVQLVESGGGVVQPGRSLRLTCAASGFPFSSYAMHWVRQAPGKGLEWVAVTWYDGPNRDYADSVKGRFTVSRDNSKNTLYLQMTSLRADDTAVYYCARRGSWGSFDYWGQGTLVTVSS
VL: DIVMTQSPLSLSATPGEPASISCRPSQSLLHSNGYNYLEWYLQKPGQSPQLLIYLGSNRASGVPDRFSGGGSGTDFTLRISRVEADDVGVYYCMQASQTPYTFGQGTKVEIK
As to B7, the Kd in experiment [1] turned out to be 0.273 nM; in experiment [2], 1.38 nM; in experiment [3], 0.742 nM; in experiment [4] it was 0.168 nM.

B8: ADI-14599 (antibody, V domains shown)
VH: EVQLVESGGGLVQPGRSLRLSCKTSGFTFGDYAMSWVRQAPGQGLDWVGFIRTKAYGGTTEYAASVKGRFTLSRDDSKSIAYLQMNSLKTEDTAVYYCKSGGQFDYWGRGTLVTVSS
VL: NFMLTQPHSVSGSPGKTVTISCTGSSGSIASNYVQWYQQRPGSAPTTVICEDNQRPSGVPDRFSGSIDSSSNSASLTISGLKTEDEADYYCQSYDRSNQEVFGGGTKLTVL
On to B8, for which the Kd in experiment [1] amounted to 0.358 nM; in experiment [2] it was 0.102 nM; in experiment [3] it was 0.622 nM; in experiment [4], 0.636 nM.

B9: ADI-20989 (antibody, V domains shown)
VH: EVQLLESGPGLVKPSGTLSLTCAVSGGSIINSNWWSWVRQSPGKGLEWIGDIYHSGSTTYNPSLKSRVTISVDRSKNQYSLRLTSVTAADTAVYYCAKIGPDNRSGPDYYYFMDVWGKGTTVTVSS
VL: EIVLTQSPSSLPASVGDRVTISCRASQSISNYVYWYQQKPGKAPKLLIYAASSLQSGVPSRFSGSGSGTDFTLSISSLQFEDFATYFCQQSYSTPPTFGQGTKLEIK
B9: the dissociation constant (Kd) in experiment [1] was 0.809 nM; in experiment [2], 4.8 nM; in experiment [3], 6.29 nM; in experiment [4], 0.428 nM.

B10: ADI-20967 (antibody, V domains shown)
VH: EVQLLESGGGVVQPGRSVRLSCAASGFSFSSYALHWVRQAPGKGLEWVGVIWYEESNKYYADPVKGRFTISRDNSKNTLYLQMNSLRDEDTAVYYCARKGVATAGLDYWGQGTLVTVSS
VL: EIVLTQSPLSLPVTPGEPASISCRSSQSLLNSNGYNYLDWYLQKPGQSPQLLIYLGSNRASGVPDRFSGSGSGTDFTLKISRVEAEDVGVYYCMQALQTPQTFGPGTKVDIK
notes: also called Ab 220
With B10, the Kd in experiment [1] amounted to 3.45 nM; in experiment [2], 2.23 nM; in experiment [3], 4.08 nM; in experiment [4], 0.257 nM.

B11: ADI-20963 (antibody, V domains shown)
VH: EVQLVESGGGLAKPGGSLRLSCAASGFTFSHYNMNWVRQAPGKGLEWVSSISSTGFHIYYADSVKGRFVISRDNAENSLHLQMNSLRADDTGLYYCVRAEYYYGSGSAGHYFDSWGQGTLVTVSS
VL: SYVLTQPPSVSVAPGHTAKITCGGSIIGTKSVHWYQQKPGQAPVLVVYDDSDRPSGIPERLSGSRSGNTATLTITRVEAGDEADYYCQVWDSSSEHAGVFGGGTKLTVL
In the case of B11, the Kd in experiment [1] was found to be 0.614 nM; in experiment [2], 0.791 nM; in experiment [3], 3.14 nM; in experiment [4], 0.0909 nM.

B12: ADI-21001 (antibody, V domains shown)
VH: EVQLVESGPGLVKPSETLSLTCTVSGGSISDIDYYWGWIRQPPGKGLEWIGSIYYSGSTYYNPSLESRVTISVDTSKNQFSLKLRSVSAADTALYHCARHGPPWVVTAIRGHAFDVWGQGTTVTVSS
VL: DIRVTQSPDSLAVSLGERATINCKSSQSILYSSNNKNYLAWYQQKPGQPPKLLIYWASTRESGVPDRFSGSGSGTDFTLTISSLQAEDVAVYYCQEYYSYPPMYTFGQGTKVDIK
B12: the Kd came to 0.302 nM in experiment [1], 2.12 nM in experiment [2], 1.85 nM in experiment [3] and 0.277 nM in experiment [4].

B13: ADI-20996 (antibody, V domains shown)
VH: QVQLVESGPALVKPTQTLTLTCTFSGFSLTTRGMCVSWIRQPPGKALEWLARIDWDDDKYYSTSLKTRLTISKDTSKNQVVLTMTNMDPVDTATYYCARASTLTTAGYYLHYKDVWGNGTTVTVSS
VL: DIRMTQSPSSLSASVGDRVTITCRASQSIGTYLNWFQQKPGKAPNLLIYAASILHSGVPSRFSGSGSGTDFTLTIRTLQPEDFATYYCQQSYPTVTFGQGTKVEIK
B13: the dissociation constant Kd in experiment [1] came out at 1.12 nM; in experiment [2], 1.03 nM; in experiment [3], 1.06 nM; in experiment [4] it was 0.204 nM.

B14: ADI-20975 (antibody, V domains shown)
VH: QVQLVESGTHVKKPGASVKVSCEASDDTFNNKGIVWVRQAPGQGLEWMGWIRPNNGNTKYAQKFQGRVTMTTDASTNTAYMELRSLRSGDTAVYYCAREQFKWNDFYFDYWGQGILVTVSS
VL: SYELMQPPSVSVAPGQTATITCGGSNIGSETVHWYQQKPGQAPVLVVHDDTDRPSGIPERFSGSNSGNTATLTISGVEAGDEADFYCQVRDSRTDDVVFGGGTKLTVL
B14: the equilibrium dissociation constant (Kd) was 0.129 nM in experiment [1], 0.092 nM in experiment [2], 0.0958 nM in experiment [3] and 0.146 nM in experiment [4].

B15: ADI-20968 (antibody, V domains shown)
VH: QVQLQQWGAGLLKPSETLSLTCAMYGGSFSDDYWSWIRQPPGKGLEWIGEVNHGGSTNYNTSLKSRVTISADTSKKQFSLKLRSVTAADTAVYFCARGWRYCNATTCYSKAFDIWGQGTMVTVSS
VL: DIQMTQSPSSLSASVGDRVTITCQASQDIDIYLIWYQQKPGRAPKLLIYDASNLKTGVPSRFSGSGSGTEFTFTINNLQPEDFATYYCQQFHDLPLTFGGGTKLEIK
For the molecule B15, the dissociation constant (Kd) in experiment [1] was 0.15 nM; in experiment [2], 0.135 nM; in experiment [3] it was 0.127 nM; in experiment [4] it was 0.157 nM.

B16: ADI-20976 (antibody, V domains shown)
VH: QVQLVESGGDLVQKGGSLRLSCAASGFTFDNYAMTWIRQAPGQGLEWVSTVSGFVLGTGYTTYYADSVKGRFTISRDSSKNTVYLQLNSLRAEDTAVYYCAKCAATRNECLWDYLQQWGQGTTVTVSS
VL: EIVMTQSPSSLSASVGDRVTITCRASQSVSIYLNWYQQKGGKAPKLLIYGASALQRGVPSRFSGSGSGTDFTLTITSLQPEDFATYFCHQSYSAPQTFGQGTKVDIK
For B16, the Kd was 0.304 nM in experiment [1], 1.86 nM in experiment [2], 0.955 nM in experiment [3] and 0.263 nM in experiment [4].

B17: ADI-20960 (antibody, V domains shown)
VH: QVQLQQWGAGVLKPSETLSLTCAVNGRSLSGHYWSWIRQTPGKGLEWIGEINNSGGTHYSPSLKSRVIISGDTAKNQLSLKLSSVTAADTAVYYCAKGSAEWYFDLWGRGTLVTVSS
VL: DIRVTQSPSTLSASVGDRVTITCRASQSVSTWLAWYQQKPGKPPSLLIFKASTLESGVPSRFSGSGSGTEFTLTISSLQPDDFATYYCQQYNTYSPWTFGPGTKVEIK
Take B17: the equilibrium dissociation constant (Kd) amounted to 0.163 nM in experiment [1], 0.22 nM in experiment [2], 0.23 nM in experiment [3] and 0.163 nM in experiment [4].
